How the values were obtained:
[1] = target: T1, Human glycopeptide (biotinylated) (biotinylated; glycosylated (glycan and sites not stated)); experiment: SPR; avid; apparent KD, FIG. 19A
T1 peptide: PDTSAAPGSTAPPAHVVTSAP

[2] = target: T2, Cynomolgus glycopeptide (biotinylated) (biotinylated; glycosylated (glycan and sites not stated)); experiment: SPR; avid; apparent KD, FIG. 19B
T2 peptide: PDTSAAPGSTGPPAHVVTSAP

Kd [1]: 253 nM | Kd [2]: 56 nM
B1: monoclonal antibody GO2 (5F7) (antibody, V domains shown)
VH: QVQLQQSDAELVKPGASVKISCKASGYTFTDHAIHWVKQRPEQGLEWIGYFSPGNDDIHYNEKFEGKATLTADKSSSTAYMQLNSLTSEDSAVYFCKRSYDKDFDCWGQGTTLTVSS
VL: DIVMSQSPSSLGVSVGEKVTMSCKSSQSLLYSTNQKNYLAWYQQKPGQSPKLLIYWVSNRKSGVPDRFTGSGSGTDFTLTISSVKAEDLAVYYCQQYYRYPLTFGAGTKLELK
